The first assay addresses X. citri VirD4 all-alpha domain (VirD4AAD) (Xanthomonas citri). As to the kind of experiment: ITC. A general note: ITC needs no label: the signal is the heat of the interaction.
A word on the Kd: it is a measure of binding affinity in units of concentration. A lower Kd goes with tighter binding. For the substance “XAC2609_(XVIPCD) D363A (from UniProt A0AAI7ZGC7 311-431) (domain or fragment)”, the Kd is 29 µM.
Regarding “XAC2609_(XVIPCD) D383A/P384A (from UniProt A0AAI7ZGC7 311-431) (domain or fragment)”, the dissociation constant (Kd) turned out to be 28 µM.
The substance “XAC2609_(XVIPCD) H315A/P316A/D317A (from UniProt A0AAI7ZGC7 311-431) (domain or fragment)” came in with a Kd of 1.2 µM.
The substance “full-length X-Tfe^XAC2609 (from UniProt A0AAI7ZGC7 1-431) (natural protein)” yielded a Kd of 0.4 µM.

A further assay shares this target. As to the kind of experiment: SEC-MALS. On the technique in general: In gel filtration, larger molecules generally elute earlier.
Broadly, the stoichiometry N is a count of units in the complex or per binding partner. As for “X-Tfe^XAC2609 XVIPCD (XAC2609_(XVIPCD), residues 311–431) (from UniProt A0AAI7ZGC7 311-431) (domain or fragment)”, the stoichiometry N was 1.
Consider “XAC2609_(XVIPCD)Δ20 (residues 311–411) (from UniProt A0AAI7ZGC7 311-411) (domain or fragment)”, for which the stoichiometry N amounted to 1.

The values are drawn from paper PMC8740702.
